According to paper PMC3081598 (Journal of the American Chemical Society, 2011):

B1: RGS14 GoLoco motif peptide (wildtype, 36 residues) (peptide)
peptide: DIEGLVELLNRVQSSGAHDQRGLLRKEDLVLPEFLQ

What was measured:
Assay in all cases: fluorescence polarisation
[1] = molecular target: GLhelix-4, redesigned RGS14 GoLoco motif peptide (UniProt O08773)
[2] = molecular target: GLhelix-4 with Trp 534 mutated to alanine (UniProt O08773)
[3] = molecular target: heterotrimeric G-protein alpha subunit Gαi1 in its inactive, GDP-complexed state (UniProt P63096 30-354)
Sequence of heterotrimeric G-protein alpha subunit Gαi1 in its inactive, GDP-complexed state (UniProt P63096 30-354) (P63096 30-354, one chain of several): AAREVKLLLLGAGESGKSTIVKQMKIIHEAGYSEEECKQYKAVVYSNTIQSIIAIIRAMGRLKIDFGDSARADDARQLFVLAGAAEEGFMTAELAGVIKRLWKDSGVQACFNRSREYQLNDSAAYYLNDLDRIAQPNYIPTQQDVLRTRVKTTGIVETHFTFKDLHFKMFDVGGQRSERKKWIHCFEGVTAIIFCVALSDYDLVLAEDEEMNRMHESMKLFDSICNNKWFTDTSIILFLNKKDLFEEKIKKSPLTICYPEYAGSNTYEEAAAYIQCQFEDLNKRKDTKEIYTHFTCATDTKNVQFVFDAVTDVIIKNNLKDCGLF

Molecule	Kd [1] [nM]	Kd [2] [nM]	Kd [3] [nM]
heterotrimeric G-protein alpha subunit Gαi1 in its inactive, GDP-complexed state (from UniProt P63096 30-354) (natural protein)	810	1400	
B1			95
